# Measured values taken from US20260167702A1 (Dana-Farber, published 2026).
# Read-outs that look alike come from different tables or passages of the source.
# Assays:
# [1] = target: T1, recombinant full length HA of A/Vietnam/1203/04 (H5-VN04) (influenza A virus A/Vietnam/1203/04 …)
# [2] = target: T1, recombinant full length HA of …; remark: listed apart in the source
# [3] = target: T2, recombinant full length HA of A/Perth/16/09 (H3-PE09) (influenza A virus A/Perth/16/09 (H3N2))
# [4] = target: full length HA of A/Vietnam/1203/04 (H5-VN04) expressed from pcDNA3.1 (on 293T cells and on pseudotyped … (influenza A virus A/Vietnam/1203/04)); assay: cell-based or functional assay
# [5] = target: T1, recombinant full length HA of …; assay: BLI, IgG1 (legend of FIG. 15)
# [6] = target: T1, recombinant full length HA of …; assay: BLI (Octet RED96), IgG1, recombinant HA
# [7] = target: T2, recombinant full length HA of …; assay: BLI (Octet RED96), IgG1, recombinant HA
# [8] = target: T2, recombinant full length HA of …; assay: BLI, IgG1 ('further experiments', FIGS. 15A and 15B)
# [9] = target: recombinant full length HA of A/mallard/Astrakhan/263/82 (H14-AS82) (influenza A virus …, UniProt P26136 18-568); assay: BLI, purified recombinant HAs; antibody format not stated here
binder,measurement,setting,value
"3I14 IgG1 (wild type) (antibody, V domains shown) VH: QVQLLESGGGVVQPGRSLRLSCAASGFTFSNYGMHWVRQAPGKGLEWVAIISFDGSKKYYANSVKGRSTISRDNSKNTLSLQMNSLGPEDTALYYCAKLPSPYYFDSRFVWVAASAFHFWGQGILVTVSS VL: NFMLTQPPSASGTPGQRVTISCSGSSSNIGGNTVHWFQQLPGTAPKLLIYTNSLRPSGVPDRFSGSKSGTSASLAISGLQSEDEADYYCAAWDDSLNGQVFGGGTKLTVL",Kd,[1],> 1 nM
same,Kd,[2],1.02 nM
same,koff,[2],0.000383 s⁻¹
same,kon,[2],375000 M⁻¹ s⁻¹
same,Kd,[3],0.263 nM
same,koff,[3],3.99e-05 s⁻¹
same,kon,[3],152000 M⁻¹ s⁻¹
same,"IC50, neutralization of H5-VN04 pseudovirus",[4],81.6 ng/mL
same,"IC50, neutralization of pseudovirus",[4],2.14 µg/mL
same,Kd,[5],1.15 nM
same,Kd,[6],1.02 nM
same,koff,[6],0.000387 s⁻¹
same,kon,[6],327000 M⁻¹ s⁻¹
same,Kd,[7],0.263 nM
same,koff,[7],3.99e-05 s⁻¹
same,kon,[7],152000 M⁻¹ s⁻¹
same,Kd,[8],1.96 nM
same,Kd,[9],< 0.1 nM
